Literature values as cited in publication PMC9569990 (International Journal of Molecular Sciences, 2022).

What was measured:
[1] = target: RAGE V domain (Homo sapiens) (UniProt Q15109); conditions: cited from earlier work
S100P (Homo sapiens) = S100P (Homo sapiens) (UniProt P25815); conditions: cited from earlier work
Sequence of S100P (Homo sapiens) (P25815 whole entry): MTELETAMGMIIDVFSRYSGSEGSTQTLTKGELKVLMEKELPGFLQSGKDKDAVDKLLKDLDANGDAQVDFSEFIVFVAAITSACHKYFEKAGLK

Sequence of S100P (P25815 whole entry): as above
Sequence of RAGE V domain (Homo sapiens) (Q15109 23-116): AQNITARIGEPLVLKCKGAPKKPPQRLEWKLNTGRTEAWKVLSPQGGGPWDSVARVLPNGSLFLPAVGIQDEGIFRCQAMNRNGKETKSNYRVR

Question: Which results are given for S100P (from UniProt P25815)?
Answer: Kd [1]: 6 µM; Kd (S100P (Homo sapiens)): 0.064 µM
